Measured values reported in publication PMC9064986 (2022).
Positions count from the first letter of the chain named.

T1: BMPRII ECD G89E (human, UniProt Q13873-1 27-150, G89E)
T1 sequence: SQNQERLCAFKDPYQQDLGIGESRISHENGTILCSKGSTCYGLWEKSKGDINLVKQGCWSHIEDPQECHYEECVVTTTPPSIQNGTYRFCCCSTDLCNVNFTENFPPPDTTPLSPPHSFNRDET

T2: BMPRII ECD G89A (human, UniProt Q13873-1 27-150, G89A)
T2 sequence: T1 sequence with E63A

T3: BMPRII ECD E98K (human, UniProt Q13873-1 27-150, E98K)
T3 sequence: T1 sequence with E63G, E72K

T4: BMPRII ECD S107P (human, UniProt Q13873-1 27-150, S107P)
T4 sequence: T1 sequence with E63G, S81P

T5: BMPRII ECD Q92H (human, UniProt Q13873-1 27-150, Q92H)
T5 sequence: T1 sequence with E63G, Q66H

T6: BMPRII ECD G89W (human, UniProt Q13873-1 27-150, G89W)
T6 sequence: T1 sequence with E63W

T7: BMPRII ECD N126S (human, UniProt Q13873-1 27-150, N126S)
T7 sequence: T1 sequence with E63G, N100S

B1: Recombinant human BMP10 growth factor (GF)-domain (R&D Systems) (ligand)
chain: NAKGNYCKRTPLYIDFKEIGWDSWIIAPPGYEAYECRGVCNYPLAEHLTPTKHAIIQALVHLKNSQKASKACCVPTKLEPISILYLDKGVVTYKFKYEGMAVSECGCR
B2: BMPRII extracellular domain (ECD), wild type (domain or fragment)
chain: T1 sequence with E63G
B3: BMPRII-Fc (R&D Systems) (Fc fusion)
chain: T1 sequence with E63G

Legend:
[1] = molecular target: B3; experiment: SPR; BMPRII-Fc immobilised
[2] = molecular target: B3; experiment: SPR; BMPRII-Fc immobilised
[3] = molecular target: B3; experiment: SPR; BMP10 pre-complexed with ALK1 ECD
[4] = molecular target: T1, BMPRII ECD G89E; experiment: SPR
[5] = molecular target: T2, BMPRII ECD G89A; experiment: SPR
[6] = molecular target: T3, BMPRII ECD E98K; experiment: SPR
[7] = molecular target: T4, BMPRII ECD S107P; experiment: SPR
[8] = molecular target: T5, BMPRII ECD Q92H; experiment: SPR
[9] = molecular target: T6, BMPRII ECD G89W; experiment: SPR
[10] = molecular target: T7, BMPRII ECD N126S; experiment: SPR
[11] = molecular target: BMPRII ECD ΔF1 (human, UniProt Q13873-1 27-150); experiment: SPR
[12] = molecular target: BMPRII ECD ΔF3 (human, UniProt Q13873-1 27-150); experiment: SPR
[13] = molecular target: T1, BMPRII ECD G89E; experiment: SPR; remark: listed apart in the source
[14] = molecular target: T2, BMPRII ECD G89A; experiment: SPR; remark: listed apart in the source
[15] = molecular target: T3, BMPRII ECD E98K; experiment: SPR; remark: listed apart in the source
[16] = molecular target: T4, BMPRII ECD S107P; experiment: SPR; remark: listed apart in the source
[17] = molecular target: T5, BMPRII ECD Q92H; experiment: SPR; remark: listed apart in the source
[18] = molecular target: T6, BMPRII ECD G89W; experiment: SPR; remark: listed apart in the source
[19] = molecular target: T7, BMPRII ECD N126S; experiment: SPR; remark: listed apart in the source
[20] = molecular target: B3; experiment: SPR; BMP10 pre-complexed with ALK1 ECD
[21] = molecular target: B1; experiment: SPR
[22] = molecular target: B1; experiment: SPR
[23] = molecular target: B1; experiment: SPR; BMP10 immobilised
[24] = molecular target: B1; experiment: SPR; BMP10 immobilised

Binder: B1
koff [1]: 0.000838 s⁻¹
Kd [2]: 0.338 nM
koff [3]: 0.00138 s⁻¹
koff [4]: 0.609 s⁻¹
koff [5]: 0.331 s⁻¹
koff [6]: 0.158 s⁻¹
koff [7]: 0.0423 s⁻¹
koff [8]: 0.147 s⁻¹
koff [9]: 0.433 s⁻¹
koff [10]: 0.14 s⁻¹
Kd [11]: 6630 nM
koff [11]: 0.309 s⁻¹
Kd [12]: 4170 nM
koff [12]: 0.49 s⁻¹
Kd [13]: 153000 nM
Kd [14]: 3190 nM
Kd [15]: 1070 nM
Kd [16]: 328 nM
Kd [17]: 1220 nM
Kd [18]: 237000 nM
Kd [19]: 1320 nM
Kd [20]: 1.6 nM

Binder: B2
koff [21]: 0.161 s⁻¹
Kd [22]: 1190 nM

Binder: B3
koff [23]: 0.000857 s⁻¹
Kd [24]: 4.47 nM
